Molecular target: T1, Chim^C::mCH
T1 sequence: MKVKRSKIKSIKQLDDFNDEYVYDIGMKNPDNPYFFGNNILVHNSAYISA
Assay: cell-based or functional assay

B1: mTQ::Chim^N (protein, not shown: large carriers)
chain: SETGDTIHKTNWGELTVEELFNRGTRYWSEDNSKEYSANDELKVLTFDPVKDEAYYGNINYIYRHKVSKEQWEIEDEAGNTIRVTGDHSIMIERDGQLMDVKPRDMLDTDVLIVVDHN
B1 gave a Kapp of the PTS reaction, pH 6.0 of 0.0107 s⁻¹, a Kapp of the PTS reaction, pH 6.5 of 0.00807 s⁻¹ and a Kapp of the PTS reaction, pH 7.0 of 0.00724 s⁻¹.

From patent US20250353884A1
